The text below walks through data of patent publication US10272117B2, “Methods of using an activator of cereblon for neural cell expansion and the treatment of central nervous system disorders” (Celgene Corporation, priority 2014, dated 2019).

The test system of the data set is zebrafish embryos. Briefly: Brain size, morphology and volume of zebrafish embryos (microscopy, MRI). The data set is classed as in vivo. The conditions noted are these: for brain development: 22 hpf. As for the experimental part:
An aqueous solution of a 25-mer antisense morpholino oligonucleotide (AMO, Gene Tools, LLC) corresponding to the vicinity of the translation initiation codon in the cDNA sequence of the gene to be knocked down ([…] injection conditions were the same as those used for RNA) was injected into the embryos at the 1-cell stage. The sequence of AMO used for the CRBN gene knockdown is 5′-[…]-3′ (SEQ ID NO: 3). The sequence of AMO used for the Lhx2 gene knockdown is 5′-[…]-3′ (SEQ ID NO:4). The sequence of AMO used for the BRD7 gene knockdown is 5′-[…]-3′ (SEQ ID NO:1). The sequence of AMO used for the Ikaros gene knockdown is 5′-[…]-3′ (SEQ ID NO:2). […]
In order to examine the effect of antagonists of BRD7 on brain growth, BRD7 was knocked down or over-expressed in zebrafish embryos. Knockdown of BRD7 was performed by microinjection of antisense morpholino oligonucleotides (AMO). Overexpression of BRD7 was performed by microinjection of synthesized capped mRNA. AMO or capped mRNA was introduced into one-cell stage embryos by using a nitrogen gas-pressure microinjector IM 300 (Narishige). Conditions for microinjection were as follows: gas pressure was about 15 picosiemens; release period was about 30 to about 50 milliseconds per single injection; concentrations of AMOs and capped mRNA were 400 ng/μl and 250 ng/μl in nuclease-free water, respectively. Capped mRNAs were synthesized in vitro using the mMESSAGE mMachine® in vitro transcription kit (Ambion) from cDNAs cloned into pCS2+ plasmids.
The brains of the embryos were examined for morphology and volume by magnetic resonance imaging (MRI). FIGS. 9A, 9B, and 9C show microscopic pictures of the untreated, the BRD7-knockdown, and the BRD7-overexpressing zebrafish embryos, respectively. FIGS. 9D, 9E, and 9F show fluorescent microscopic pictures of the brain regions of the untreated, the BRD7-knockdown, and the BRD7-overexpressing zebrafish embryos, respectively. As shown in these figures, the BRD7-knockdown zebrafish embryos had bigger heads than the untreated embryos. […] The volume of the whole brain of the BRD7-knockdown fish was much bigger than that of the untreated fish, while for the BRD7-overexpressing fish, the brain volume was smaller.
In order to examine the effect of antagonists of Ikaros on brain growth, Ikaros was knocked down or over-expressed in zebrafish embryos. Knockdown of Ikaros was performed by microinjection of antisense morpholino oligonucleotides (AMO). Overexpression of Ikaros was performed by injection of synthesized capped mRNA. AMO or capped mRNA was introduced into one-cell stage embryos by using a nitrogen gas-pressure microinjector IM 300 (Narishige). Conditions for microinjection were as follows: gas pressure was about 15 picosiemens; release period was about 30 to about 50 milliseconds per single injection; concentrations of AMOs and capped mRNA were 400 ng/μl and 250 ng/μl in nuclease-free water, respectively. Capped mRNAs were synthesized in vitro using the mMESSAGE mMachine® in vitro transcription kit (Ambion) from cDNAs cloned into pCS2+ plasmids.
The brains of the embryos were examined for morphology and volume by magnetic resonance imaging (MRI). FIGS. 15A, 15B, and 15C show microscopic pictures of untreated, Ikaros-knockdown, and Ikaros-overexpressing zebrafish embryos at 55 hpf, respectively. As shown in these figures, the Ikaros-knockdown fish had bigger heads than the untreated embryos. […] The volume of the whole brain of the Ikaros-knockdown fish was much bigger than that of the untreated fish, while for the Ikaros-overexpressing fish, the brain volume was smaller.

As to “5′-TCTGCAACCCAAGATTTCCGTGAGA-3′ (all phosphorodiamidate morpholino (PMO)) [lhx2 gene-knockdown, 25-mer antisense morpholino oligonucleotide (AMO) used for the Lhx2 gene knockdown, reference compound]”, the “brain size compared to the normal embryo” value (FIG. 1) is recorded as “brain shrinkage”.

B1: ikzf1-007: Ikaros variant lacking exons 4 and 7, overexpressed as fused Ikzf1:EGFP protein in zebrafish embryos (nucleic acid)
DNA: ATGGAGACTGAGGAGGCACAGGAAATGTCCCAGATAACAGGAAGAGACAGCCCGATGAATGCTAATGAAGGCGGAGAGGATCAAGATGAGGCCATGCCTGTTCCTGAAGACTTGTCAGCAAGCACTGGCCTCCAACACAACAATCGCACAGATAAACCACTGGCCTGTAATATAAAAGTTGAGGCTCGGAGTGACGAGGAAAACGGTCTGTCCTGTGAGATGAATGGAGAGGCAGAGGAATGTGCAGCTGAGGACTTGCGCATACTCGATGGCTCTGGGGCCAAAGTGAACGGCTCCCACGCAGGCCCCGACAGCAAGCCGGCCGCCTACCCCACAGCCGGGGGCATCCGCCTCCCCAACGGGAAGCTGAAGTGCGATATCTGTGGGATAGTTTGCATTGGGCCCAATGTGTTGATGGTTCACAAGCGAAGTCACACTGGTGAAAGGCCATTCCAGTGCAATCAATGTGGTGCTTCATTCACTCAGAAGGGTAACCTGCTCCGACACATCAAACTTCACTCTGGCGAGAAACCTTTCAAATGTCACCTGTGCAACTATGCTTGCCGCCGCAGAGACGCTCTCACTGGACATCTGCGCACTCATTCGGTTGGAAAGCCCCATAAGTGTGCATATTGCGGACGCAGTTACAAGCAGCGGAGCTCACTGGAGGAACATAAGGAGAGATGTCACAACTACTTGCAGTGCATGGGCCTTCAGAACAGCATTTATACAGGAGAGAATCGTCTGTCAGAGCTATCTTTCGAGAGTGGCTCANGTGAGCTGATGCAGCCCCATGTGATTGATCAGGCCATCAACAGTGCAATTAGCTATCTGGGTGCAGAGTCCTTGCGGCCTCTGGTTCAGACCTCTCCTGGGTCCGCCGACATGGTGGTCAGCCCTCTATACAACCTGCACAAGTCACAAACAGCTGAAGGCAATGGTGTTTCTGCTAAAGACAGCGCCGCAGAGCACCTTCTCCTACTCTCTAAGTCCAAATCCGCCTCTGTTGACAAAGACGGTTCCCCCAGTCCCAGCGGGCAGGATTCCACTGACACTGAGAGCAACAACGAGGAGCGTTCGGCCGGGGTAAGCGGAACAGCAGCCACAGGTGGTCTCATCTACCTGACCAACCACATGGCTCCAGGTATGAGAAATGGAGGCCTGCCAGGGGTAAAGGAAGAACAACACCGGCAGTTTGAGGCTTTGCGAGCAGCAGGAATGGATTTGAGTATAGCGTCATCAGAAGGATTTAAGGTGCTAAGTGGAGATGGAGAAGAATTGAGGGCGTACCGCTGTATCCACTGCAGAGTTTTGTTCCTGGATCATGTCATGTACACCATCCACATGGGCTGTCATGGCTTCCGAGACCCCTTTGAGTGCAACCTATGCGGGTACCGCAGTCAGGACCGTTATGAGTTCTCATCGCACATCACACGTGGAGAGCACCGCATCTGA
modifications: fused to EGFP; nucleotide sequence of ikzf1-007 Ikaros variant; 775 n = A,T,C or G
notes: Ikaros variant lacking exons 4 and 7, overexpressed as fused Ikzf1:EGFP protein in zebrafish embryos
Take B1: the brain development result is on record as “reduction of brain development”.

B2: ikzf1-006: Ikaros variant lacking exon 7, overexpressed as fused Ikzf1:EGFP protein in zebrafish embryos (nucleic acid)
DNA: ATGGAGACTGAGGAGGCACAGGAAATGTCCCAGATAACAGGAAGAGACAGCCCGATGAATGCTAATGAAGGCGGAGAGGATCAAGATGAGGCCATGCCTGTTCCTGAAGACTTGTCAGCAAGCACTGGCCTCCAACACAACAATCGCACAGATAAACCACTGGCCTGTAATATAAAAGTTGAGGCTCGGAGTGACGAGGAAAACGGTCTGTCCTGTGAGATGAATGGAGAGGCAGAGGAATGTGCAGCTGAGGACTTGCGCATACTCGATGGCTCTGGGGCCAAAGTGAACGGCTCCCACGCAGGCCCCGACAGCAAGCCGGCCGCCTACCCCACAGCCGGGGGCATCCGCCTCCCCAACGGGAAGCTGAAGTGCGATATCTGTGGGATAGTTTGCATTGGGCCCAATGTGTTGATGGTTCACAAGCGAAGTCACACTGAAGAAAGAAAGTCAGTTTTGGAACAACAAAAAGGTGAAAGGCCATTCCAGTGCAATCAATGTGGTGCTTCATTCACTCAGAAGGGTAACCTGCTCCGACACATCAAACTTCACTCTGGCGAGAAACCTTTCAAATGTCACCTGTGCAACTATGCTTGCCGCCGCAGAGACGCTCTCACTGGACATCTGCGCACTCATTCGGTTGGAAAGCCCCATAAGTGTGCATATTGCGGACGCAGTTACAAGCAGCGGAGCTCACTGGAGGAACATAAGGAGAGATGTCACAACTACTTGCAGTGCATGGGCCTTCAGAACAGCATTTATACAGGAGAGAATCGTCTGTCAGAGCTATCTTTCGAGAGTGGCTCANGTGAGCTGATGCAGCCCCATGTGATTGATCAGGCCATCAACAGTGCAATTAGCTATCTGGGTGCAGAGTCCTTGCGGCCTCTGGTTCAGACCTCTCCTGGGTCCGCCGACATGGTGGTCAGCCCTCTATACAACCTGCACAAGTCACAAACAGCTGAAGGCAATGGTGTTTCTGCTAAAGACAGCGCCGCAGAGCACCTTCTCCTACTCTCTAAGTCCAAATCCGCCTCTGTTGACAAAGACGGTTCCCCCAGTCCCAGCGGGCAGGATTCCACTGACACTGAGAGCAACAACGAGGAGCGTTCGGCCGGGGTAAGCGGAACAGCAGCCACAGGTGGTCTCATCTACCTGACCAACCACATGGCTCCAGGTATGAGAAATGGAGGCCTGCCAGGGGTAAAGGAAGAACAACACCGGCAGTTTGAGGCTTTGCGAGCAGCAGGAATGGATTTGAGTATAGCGTCATCAGAAGGATTTAAGGTGCTAAGTGGAGATGGAGAAGAATTGAGGGCGTACCGCTGTATCCACTGCAGAGTTTTGTTCCTGGATCATGTCATGTACACCATCCACATGGGCTGTCATGGCTTCCGAGACCCCTTTGAGTGCAACCTATGCGGGTACCGCAGTCAGGACCGTTATGAGTTCTCATCGCACATCACACGTGGAGAGCACCGCATCTGA
modifications: fused to EGFP; nucleotide sequence of ikzf1-006 Ikaros variant; 808 n = A,T,C or G
notes: Ikaros variant lacking exon 7, overexpressed as fused Ikzf1:EGFP protein in zebrafish embryos
As for B2, the brain development result is “reduction of brain development”.
